In the DeepSol protein solubility set:

experiment: soluble on expression in E. coli; label from the status in PepcDB or PDB records

Sequence | soluble on expression in E. coli
MGLSPGQTSVSFLWPLLEVRDHNTGRGLVPATVLTPGSPETLLELRQAFLGSRQARHGHDAAPSSGQQGCSVDRTAGRPVLGWRLRNSLTGQEGRQHLHLSGIRTSRKAKEYKPVFFGATEISVLMAVAESLREPPPPQWGWFLSSLFLKIF | not soluble
GPGSMNERLEDIALTLVGAGKGILAADESTATIGKRFESIGVECTEDNRRAYREMLFTAKEAMESAISGVILFDETLRQKASTGQMLTDLIRDAGAVPGIKVDTGAKPLAAFPQETITEGLDGLRERLKDYYTLGARFAKWRAVIAIDAQTLPTRGAISQNAQALARYAALCQEAGLVPIVEPEVLMDGPSRQHSITRCFEVTKVVLHTVFKELFEARVLFEGMILKPNMVIDGKDARIASVEEVAEKTVHVLKQTVPAAVPGIAFLSGGQTDEEATAHLSAMNALGALPWKLTFSYGRALQAAALKAWAGKNENIVVAQKAFCHRARMNHLAALGQWTKDQEKSCA | soluble
MGSDKIHHHHHHSDQYSTETFWKTKEHASAGIMGCYNALKLWRSLHTMEFDMLTANAMPYNEANGTQAIGKGEHLSTTALIGSLWKNCYVGIGRTNTFIANVGGVDMDESEKAKMVGEAKFLRAFYYLSLVDKFGGVPLIIDAPNADEQAELPRNSKEEVVNQIVKDLEEAAAVLPDTYASSDLGRATKGAALALKARTLLYNSRWAEAAQAAKQVMESGVYQLFNDYRHFFSEDNKYNCEVIFDIEAKLPEYPTDYDQNIWRLNRPAPLKELVDTYLCVDGKTIEESPLYDPTRPYENRDPRLLKSIVCIGYPYLGKTITKEDVATTGFGVKKYTSYEDDVTIPLVERSAFNFILIRYAEVLLTYAEAQNEASGPDQSVYDAINQLRRRPDINMPEVPKGLTKDQMREVIRRERRIELTFEGLYYSDILRWKTAEKENNGMMHNYEGIEVVKRSFNPKRDYLWPIPYNQTVLNPNLEQNPNWD | not soluble
PMGDGTQVVFTTSLIPTEAIVQLDTKAPANSKQSPIFFISPIEGFASALEPLAKRLEVPAYGLQYTEAVPSDSLESAAKFFIKQLRTVQPKGPYKLAGYSFGCLLTYVMAGILEETNEVANVIMLDGAPSYVNWYTSSFKQRYTDGTNADNDNQSYGLAYFGIVLANIDYKALVRLLIVIPTWEEKLERFAELMSNEITQPVETIKKSATLFYKKLELADGYQPTLKLKTNVTLVKPTDNSAKLDEDYRLKEVCTKPVEVHTVEGNHRTFLIEDQSLKTIQSILKRL | soluble
GMELQDTIFKRQSVRKFKNQDVSDEDILKMIKAAGAAPSGKNIQNWHFVVIKRRDLMEKIADVITKKQQEILVEMDKVSVDKANRFRKFVKNFTLFYLKAPVLVLVFTKVYNPSGYYELELIDAPKETIDKLFIRNPGMQSLGAAIENFTLSAIELGYGSCWLTSQNYAADEIEAVLEAETGFEKGEYFLGAMLALGVPEDNLKSPSKKPVEEICTFIK | soluble
MPKATFYTHVAQVPIFTCRLIARAIRDGGRILVWSDSFGQLQELDKMLWQYEAESFIPHEIWETEEAMPSEPSVLLACGGNLPRIPEGMTVLNLSDGFWNTAPVLPARVLEIVGNSLEELADARERFTAYRRSGFAIEHHGMEGKA | not soluble
MSLTVRFTESVSKQDLDALFEWAKASYGAESCWKTLYLNGLPLGNLSPEWVERVKKDWEAGCSESSDGIFLNADGWPDMGGRLQHLALGWHCAGLLDGWRNECFDLTDGGGNPLFTLERAAFRPFGLLSRAVHLNGLTESDGRWHFWIGRRSPHKAVDPNKLDNTAAGGVSGGEMPSEAVCRESSEEAGLDKTLLPLIRPVSQLHSLRSVSRGVHNEILYVFDAVLPETFLPENQDGEVAGFEKMDIGGLLDAMLSGNMMHDAQLVTLDAFCRYGLIDAAHPLSEWLDGIREGHHHHHH | not soluble
MVAVYDVEFPLPLNTQPMEARAAGVLPRDDGPWQYEPKWDGFRCLAFKAGKAVDLRAKSGKPLGRYFPELMAALSALAATEFVIDGEIIIEIEGRASFDALQMRLHPAESRIRKLSRETPARLVVFDMLVAPEGRPRMELPLRDRRAEAEDLVAKAKTKTLRLSPATTSLATADNWLKGAGSGSIDGVVAKLLNGPYRPGERAMVKVKRLRTADCVVGGFRYLNGKRQVGSLLLGLYNGDGLLDHVGFTSTIANDERAVLTEKLENLRGGSGFTGKAPGGPSRWSTERSGEWEPVRPELVVEVRFDHVTGDRFRHGTKLVRWRPDKAPLQCTFEQLELEHHHHHH | soluble
MAHHHHHHMKCFYITEKGKKQNFRNIKLITFDLDHTIWNIDGLLNYADKECYEYMKKNYRRLYDYLQEEYQLSITNLVKQLLENKIEDNNDGVQTLTNMRIDALKFLAKKTNYDEGKFVSEIQELWKEKKNDVHLFISPGTLEYLRELKRRGYTLGAITNGDSDVNGIKFLNEIFTFVIRSMDYNHSKPSVEIFNIAENILKKKNFHFEIHQWMHVGDDVYTDIMGAKNKNINCAWITMFRDGSEVPPNDWYPYLKLKLEENGDSHLSQYDPFADGLFSRFRRRDVVLPYEYIDIE | not soluble
MSLADGKTYKIGAAVYGLKGQFMQNWVRELKEHPAVKDGTVKITVFDGNYDALTQNNQIETMITQHYDAIIFVPIDTKAGVGTVARAMENDIPVIASNTRVAGNKVPYVGNDDVEGGRLQAQAMVDKLKGKGNVVIIQGPIGQSAQIDREKGELEVLSKHPDIKIIEKKTANWSRAEAQTLTEDWLNAHQNGGISGIISQNDDMALGALQAVKSRNLKPADVPITSIDGMPDAIQAAKKNEITTFLQDAQAQSQGALDVALRALAGKDYKPQSVIWQRYAKDVKWGDGTDEGHHHHHH | soluble
MTGDHIKVIYFNGRGRAESIRMTLVAAGVNYEDERISFQDWPKIKPTIPGGRLPAVKITDNHGHVKWMVESLAIARYMAKKHHMMGGTEEEYYNVEKLIGQAEDLEHEYYKTLMKPEEEKQKIIKEILNGKVPVLLDIICESLKASTGKLAVGDKVTLADLVLIAVIDHVTDLDKEFLTGKYPEIHKHRENLLASSPRLAKYLSDRAATPF | soluble
MDVADSTSETPPVFDHDNLALAAQTNLLQFYLTHLASTLVPPMKLDMRDSMTPSFSQTESPNSETDDSTSAANKVLFSILGTPTTDSTSNAVSKSSSKLCSVCGDKSTGLHYGAATCEGCKGFFKRSVQNKKVYHCSQDNCCEIDKQNRNRCQSCRFRKCISKGMLTEAVREDRMPGGRNGNSIYSNYKQRRSIIRKTKDYVEEQERRPFQSLPSGKKLIKELVEMDCLDRLINLKGLRINPSANCDIAPACKRLTRIGDEIVEQLVEWTKTLPFFDELPVEAHTHLLTQRWAELVLLSAGYYACSVFTPDSPDTTEMIDETDEISFTNPQVNLRLLQNRLSLVLGKEIPLEHVAKEAGPLVTRFTTLLHSFSNLKVSPEAYVCIKAITLLHLSADSTLDRSIIDKVNTLQDHFVKTLQIHLHQPGEDAQTTSLAQILDWLPDLRNASSVLLHSKMFYVPFLLCKNPRRLVFDE | not soluble
MLRIYAPASSANISVGFDTLGAAISPIDGSLLGDVVQIESISTGFELESAGYFVRKLPKEPQKNIVYQAYVLFSEQLKLRGANVKPLRLTLEKNMPIGSGLGSSACSIVAALVALNQFHNEPFSKMELLEMMGELEGRISGSIHYDNVAPCYLGGVQFMVQS | not soluble
GPGPAIGEVIGISVNDPRVKEIAEFALKQHAEQNLILAGVDAGQIIKGIPHWDNYYNLILSAKHSPHEFSKFYNVVVLEKASDNSLKLVAFVPLF | soluble
MSLGFASQQEAVNDFWGWPSDESDKEAVEASIRKYANAIADTINKYGYDGFDIDYEPNYGNKGNIVDDDDRMFIFVDELGKHFGPKSGTGKLLIIDGEPQSIKNRPDVGPYFDYFIIQAYKPGNDNNLDKRLIDGGVAGPGLVQTYGSVMSEEQITKMTIMTENFEAVDAAMDGGYPYTDRYGNSMKSLEGMARWQPKNGFRKGGVGSYHMEAEYPTNPEYKNLRKAIQIMNPSTKPLIKYEGHHHHHH | soluble
